Laboratory results from publication PMC4794606 (Molecules and Cells, 2016).

Key:
[1] = target: full length human extracellular superoxide dismutase (residues 1-240), (His)6-FLAG-PreScission site fusion (human) (UniProt P08294); test: SEC
SEC = target: the molecule itself; test: SEC

Row | Molecule | stoichiometry N [1] | stoichiometry N (SEC)
1 | full length human extracellular superoxide dismutase (residues 1-240), (His)6-FLAG-PreScission site fusion (from UniProt P08294 19-240) (enzyme) | 8 | –
2 | truncated/mature human extracellular superoxide dismutase (residues 19-240), (His)6-FLAG-PreScission site fusion (enzyme, UniProt P08294 19-240, looked up, N-glycosylated at Asn107) WTGEDSAEPNSDSAEWIRDMYAKVTEIWQEVMQRRDDDGALHAACQVQPSATLDAAQPRVTGVVLFRQLAPRAKLDAFFALEGFPTEPNSSSRAIHVHQFGDLSQGCESTGPHYNPLAVPHPQHPGDFGNFAVRDGSLWRYRAGLAASLAGPHSIVGRAVVVHAGEDDLGRGGNQASVENGNAGRRLACCVVGVCGPGLWERQAREHSERKKRRRESECKAA | – | 8
